Assay [1] deals with cynomolgus macaque LILRB1.2 expressed on stably transduced HEK293T cells (cynomolgus macaque).
Assay [2] has as its target cynomolgus macaque LILRB4 expressed on stably transduced HEK293T cells (cynomolgus macaque).
In assay [3] the target is cynomolgus macaque LILRB2.1 expressed on stably transduced HEK293T cells (cynomolgus macaque).

Values joined by “and” are separate entries in the source; they are usually repeats but may differ in a detail not shown here. Identical values can stand only once.

For “cynomolgus macaque Mafa-A1*063 SIV gag GW9 (…)-APC tetramer (peptide-MHC)”, the % cells in the tetramer+ gate in assay [1] is 51.7% and 53%; in assay [2], 0.13%; in assay [3], 73.5% and 71%.
